# Data published in US20250092156A1.
# Molecular target: FLAG-tagged WT RPTPα (WT-RPTPA, NM 008980.2, C-terminal FLAG) (mouse) (UniProt P18052)
# Experiment: FLIM-FRET, anti-HA A488 donor with anti-FLAG A568 acceptor; unquenched donor around 2.4 ns
# Chain of FLAG-tagged WT RPTPα (WT-RPTPA, NM 008980.2, C-terminal FLAG) (mouse) (P18052 20-829 limits assumed): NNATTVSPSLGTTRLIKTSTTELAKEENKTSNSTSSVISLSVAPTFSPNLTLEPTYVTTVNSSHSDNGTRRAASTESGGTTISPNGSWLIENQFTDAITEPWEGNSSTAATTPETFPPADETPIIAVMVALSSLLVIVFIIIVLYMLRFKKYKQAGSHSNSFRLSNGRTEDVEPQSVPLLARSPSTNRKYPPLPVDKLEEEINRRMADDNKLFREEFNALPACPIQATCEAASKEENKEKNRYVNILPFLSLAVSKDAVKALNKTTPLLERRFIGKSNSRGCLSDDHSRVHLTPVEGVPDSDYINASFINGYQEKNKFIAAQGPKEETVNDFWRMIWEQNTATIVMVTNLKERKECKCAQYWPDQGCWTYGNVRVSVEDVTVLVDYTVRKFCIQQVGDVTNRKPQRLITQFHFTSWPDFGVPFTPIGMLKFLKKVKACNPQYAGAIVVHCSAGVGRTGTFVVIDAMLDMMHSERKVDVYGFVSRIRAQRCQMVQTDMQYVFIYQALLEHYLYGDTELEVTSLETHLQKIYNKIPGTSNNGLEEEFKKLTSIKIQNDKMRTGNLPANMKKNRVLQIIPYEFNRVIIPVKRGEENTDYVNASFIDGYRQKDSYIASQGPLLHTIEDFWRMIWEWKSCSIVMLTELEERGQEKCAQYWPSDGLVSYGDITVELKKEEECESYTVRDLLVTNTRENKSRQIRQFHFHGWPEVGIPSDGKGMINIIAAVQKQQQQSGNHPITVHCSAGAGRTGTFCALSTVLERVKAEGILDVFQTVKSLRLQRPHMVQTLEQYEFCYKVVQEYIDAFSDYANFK
# Chain of HA-tagged WT RPTPα (WT-RPTPA, NM 008980.2, C-terminal HA) (P18052 20-829): as the sequence (P18052 20-829 limits assumed) above
substance,measurement,value
"HA-tagged WT RPTPα (WT-RPTPA, NM 008980.2, C-terminal HA) (from UniProt P18052 20-829) (receptor)",donor fluorescence lifetime of quenched (H-FRET) population,1.15 ns
